In patent US20220056104A1 (Janssen / Centocor, published 2022):

B1: TL1W110 (His-TEV-TL1A S187K) (ligand)
chain: HHHHHHENLYFQGLKGQEFAPSHQQVYAPLRADGDKPRAHLTVVRQTPTQHFKNQFPALHWEHELGLAFTKNRMNYTNKFLLIPESGDYFIYSQVTFRGMTSECSEIRQAGRPNKPDSITVVITKVTDKYPEPTQLLMGTKSVCEVGSNWFQPIYLGAMFSLQEGDKLMVNVSDISLVDYTKEDKTFFGAFLL
notes: also called TL1W110 (S187K)
B2: TL1W118 (His-TEV-TL1A S206A) (ligand)
chain: HHHHHHENLYFQGLKGQEFAPSHQQVYAPLRADGDKPRAHLTVVRQTPTQHFKNQFPALHWEHELGLAFTKNRMNYTNKFLLIPESGDYFIYSQVTFRGMTSECSEIRQAGRPNKPDSITVVITKVTDSYPEPTQLLMGTKSVCEVGANWFQPIYLGAMFSLQEGDKLMVNVSDISLVDYTKEDKTFFGAFLL
notes: also called TL1W118 (S206A)
B3: TL1W125 (His-TEV-TL1A N207E) (ligand)
chain: HHHHHHENLYFQGLKGQEFAPSHQQVYAPLRADGDKPRAHLTVVRQTPTQHFKNQFPALHWEHELGLAFTKNRMNYTNKFLLIPESGDYFIYSQVTFRGMTSECSEIRQAGRPNKPDSITVVITKVTDSYPEPTQLLMGTKSVCEVGSEWFQPIYLGAMFSLQEGDKLMVNVSDISLVDYTKEDKTFFGAFLL
notes: also called TL1W125 (N207E)
B4: TL1W127 (His-TEV-TL1A Y238A) (ligand)
chain: HHHHHHENLYFQGLKGQEFAPSHQQVYAPLRADGDKPRAHLTVVRQTPTQHFKNQFPALHWEHELGLAFTKNRMNYTNKFLLIPESGDYFIYSQVTFRGMTSECSEIRQAGRPNKPDSITVVITKVTDSYPEPTQLLMGTKSVCEVGSNWFQPIYLGAMFSLQEGDKLMVNVSDISLVDATKEDKTFFGAFLL
notes: also called TL1W127 (Y238A)
B5: TL1W114 (His-TEV-TL1A T192A) (ligand)
chain: HHHHHHENLYFQGLKGQEFAPSHQQVYAPLRADGDKPRAHLTVVRQTPTQHFKNQFPALHWEHELGLAFTKNRMNYTNKFLLIPESGDYFIYSQVTFRGMTSECSEIRQAGRPNKPDSITVVITKVTDSYPEPAQLLMGTKSVCEVGSNWFQPIYLGAMFSLQEGDKLMVNVSDISLVDYTKEDKTFFGAFLL
notes: also called TL1W114 (T192A)
B6: TL1W116 (His-TEV-TL1A T192K) (ligand)
chain: HHHHHHENLYFQGLKGQEFAPSHQQVYAPLRADGDKPRAHLTVVRQTPTQHFKNQFPALHWEHELGLAFTKNRMNYTNKFLLIPESGDYFIYSQVTFRGMTSECSEIRQAGRPNKPDSITVVITKVTDSYPEPKQLLMGTKSVCEVGSNWFQPIYLGAMFSLQEGDKLMVNVSDISLVDYTKEDKTFFGAFLL
notes: also called TL1W116 (T192K)
B7: TL1W117 (His-TEV-TL1A T192E) (ligand)
chain: HHHHHHENLYFQGLKGQEFAPSHQQVYAPLRADGDKPRAHLTVVRQTPTQHFKNQFPALHWEHELGLAFTKNRMNYTNKFLLIPESGDYFIYSQVTFRGMTSECSEIRQAGRPNKPDSITVVITKVTDSYPEPEQLLMGTKSVCEVGSNWFQPIYLGAMFSLQEGDKLMVNVSDISLVDYTKEDKTFFGAFLL
notes: also called TL1W117 (T192E)
B8: TL1W123 (His-TEV-TL1A N207S) (ligand)
chain: HHHHHHENLYFQGLKGQEFAPSHQQVYAPLRADGDKPRAHLTVVRQTPTQHFKNQFPALHWEHELGLAFTKNRMNYTNKFLLIPESGDYFIYSQVTFRGMTSECSEIRQAGRPNKPDSITVVITKVTDSYPEPTQLLMGTKSVCEVGSSWFQPIYLGAMFSLQEGDKLMVNVSDISLVDYTKEDKTFFGAFLL
notes: also called TL1W123 (N207S)
B9: TL1W120 (His-TEV-TL1A S206K) (ligand)
chain: HHHHHHENLYFQGLKGQEFAPSHQQVYAPLRADGDKPRAHLTVVRQTPTQHFKNQFPALHWEHELGLAFTKNRMNYTNKFLLIPESGDYFIYSQVTFRGMTSECSEIRQAGRPNKPDSITVVITKVTDSYPEPTQLLMGTKSVCEVGKNWFQPIYLGAMFSLQEGDKLMVNVSDISLVDYTKEDKTFFGAFLL
notes: also called TL1W120 (S206K)
B10: TL1W126 (His-TEV-TL1A F209W) (ligand)
chain: HHHHHHENLYFQGLKGQEFAPSHQQVYAPLRADGDKPRAHLTVVRQTPTQHFKNQFPALHWEHELGLAFTKNRMNYTNKFLLIPESGDYFIYSQVTFRGMTSECSEIRQAGRPNKPDSITVVITKVTDSYPEPTQLLMGTKSVCEVGSNWWQPIYLGAMFSLQEGDKLMVNVSDISLVDYTKEDKTFFGAFLL
notes: also called TL1W126 (F209W)
B11: TL1W121 (His-TEV-TL1A S206E) (ligand)
chain: HHHHHHENLYFQGLKGQEFAPSHQQVYAPLRADGDKPRAHLTVVRQTPTQHFKNQFPALHWEHELGLAFTKNRMNYTNKFLLIPESGDYFIYSQVTFRGMTSECSEIRQAGRPNKPDSITVVITKVTDSYPEPTQLLMGTKSVCEVGENWFQPIYLGAMFSLQEGDKLMVNVSDISLVDYTKEDKTFFGAFLL
notes: also called TL1W121 (S206E)
B12: TL1W113 (His-TEV-TL1A P189S) (ligand)
chain: HHHHHHENLYFQGLKGQEFAPSHQQVYAPLRADGDKPRAHLTVVRQTPTQHFKNQFPALHWEHELGLAFTKNRMNYTNKFLLIPESGDYFIYSQVTFRGMTSECSEIRQAGRPNKPDSITVVITKVTDSYSEPTQLLMGTKSVCEVGSNWFQPIYLGAMFSLQEGDKLMVNVSDISLVDYTKEDKTFFGAFLL
notes: also called TL1W113 (P189S)
B13: TL1W119 (His-TEV-TL1A S206F) (ligand)
chain: HHHHHHENLYFQGLKGQEFAPSHQQVYAPLRADGDKPRAHLTVVRQTPTQHFKNQFPALHWEHELGLAFTKNRMNYTNKFLLIPESGDYFIYSQVTFRGMTSECSEIRQAGRPNKPDSITVVITKVTDSYPEPTQLLMGTKSVCEVGFNWFQPIYLGAMFSLQEGDKLMVNVSDISLVDYTKEDKTFFGAFLL
notes: also called TL1W119 (S206F)
B14: TL1W124 (His-TEV-TL1A N207K) (ligand)
chain: HHHHHHENLYFQGLKGQEFAPSHQQVYAPLRADGDKPRAHLTVVRQTPTQHFKNQFPALHWEHELGLAFTKNRMNYTNKFLLIPESGDYFIYSQVTFRGMTSECSEIRQAGRPNKPDSITVVITKVTDSYPEPTQLLMGTKSVCEVGSKWFQPIYLGAMFSLQEGDKLMVNVSDISLVDYTKEDKTFFGAFLL
notes: also called TL1W124 (N207K)
B15: TL1W115 (His-TEV-TL1A T192F) (ligand)
chain: HHHHHHENLYFQGLKGQEFAPSHQQVYAPLRADGDKPRAHLTVVRQTPTQHFKNQFPALHWEHELGLAFTKNRMNYTNKFLLIPESGDYFIYSQVTFRGMTSECSEIRQAGRPNKPDSITVVITKVTDSYPEPFQLLMGTKSVCEVGSNWFQPIYLGAMFSLQEGDKLMVNVSDISLVDYTKEDKTFFGAFLL
notes: also called TL1W115 (T192F)
B16: TL1W111 (His-TEV-TL1A S187D) (ligand)
chain: HHHHHHENLYFQGLKGQEFAPSHQQVYAPLRADGDKPRAHLTVVRQTPTQHFKNQFPALHWEHELGLAFTKNRMNYTNKFLLIPESGDYFIYSQVTFRGMTSECSEIRQAGRPNKPDSITVVITKVTDDYPEPTQLLMGTKSVCEVGSNWFQPIYLGAMFSLQEGDKLMVNVSDISLVDYTKEDKTFFGAFLL
notes: also called TL1W111 (S187D)
B17: TL1W112 (His-TEV-TL1A P189F) (ligand)
chain: HHHHHHENLYFQGLKGQEFAPSHQQVYAPLRADGDKPRAHLTVVRQTPTQHFKNQFPALHWEHELGLAFTKNRMNYTNKFLLIPESGDYFIYSQVTFRGMTSECSEIRQAGRPNKPDSITVVITKVTDSYFEPTQLLMGTKSVCEVGSNWFQPIYLGAMFSLQEGDKLMVNVSDISLVDYTKEDKTFFGAFLL
notes: also called TL1W112 (P189F)

Experiments:
DcR3 = target: T1, DcR3 (UniProt O95407 30-300, limits assumed); assay: ELISA, DcR3
T1 construct: the construct is not described; also called decoy receptor DcR3; TNFRSF6B
T1 sequence (looked up): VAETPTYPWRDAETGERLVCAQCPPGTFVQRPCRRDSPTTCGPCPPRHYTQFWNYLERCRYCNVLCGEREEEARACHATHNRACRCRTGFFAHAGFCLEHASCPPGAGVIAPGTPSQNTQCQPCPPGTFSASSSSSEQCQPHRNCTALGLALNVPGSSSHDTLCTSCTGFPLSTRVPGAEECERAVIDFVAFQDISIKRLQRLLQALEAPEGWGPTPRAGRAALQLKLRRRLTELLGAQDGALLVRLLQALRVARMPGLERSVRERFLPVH

[1] = target: T2, Recombinant DR3-Fc (R&D Systems, cat. #943-D3) (UniProt Q93038 25-199, limits assumed); assay: ELISA, DR3-Fc immobilized
T2 construct: dimeric MW~92 kDa; also called DR3 receptor; Fc-DR3; not shown: Fc part of the bought fusion
T2 sequence (looked up): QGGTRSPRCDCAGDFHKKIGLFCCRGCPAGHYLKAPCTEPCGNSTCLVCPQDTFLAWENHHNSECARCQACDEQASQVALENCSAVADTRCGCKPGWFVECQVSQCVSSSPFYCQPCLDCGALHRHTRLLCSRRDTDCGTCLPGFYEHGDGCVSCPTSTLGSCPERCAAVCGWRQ
Description: All ELISA-based measurements were collected in triplicate, and error values report the standard error between measurements. Recombinant DR3-Fc (R&D Systems, cat. #943-D3), dimeric MW˜92 kDa, was non-specifically immobilized onto plates (Nunc maxisorp, cat. #436110) in 100 μL DR3-Fc, diluted to 10 μg/mL onto a 96-well White Maxisorp plate (Nunc, cat #436110) (O/N, 4° C.). Plates were block for 1 hour at room temperature with 250 μl/well of casein buffer and blocking buffer was removed. 50 μL of TL1A variants were diluted in StartingBlock PBS (Thermo Fisher Scientific), at 25 μg/mL, diluting 3× over each well, according to the plate map description for 20160623) per well on a 96-well White Maxisorp plate (Nunc, cat #: 436110) (overnight at 4° C.).
Plates were washed three times with TBST. 100 μl/well polyclonal rabbit anti-human TL1A-biotin antibody (diluted 1:1000 in Starting Block PBS) was added and plates were incubated for 1 hour at room temperature with shaking at 150 rpm. TL1A-biotin antibody was removed and 100 μl/well streptavidin-HRP conjugate (diluted 1:10,000 in Starting Block PBS) was added to plates. Plates were incubated for 1 hour at room temperature with shaking at 150 rpm. Plates were washed three times with TBST. 100 μl/well POD Chemiluminescence substrate (Roche, cat #: 11582950001) was added immediately prior to reading plate luminescence using a Molecular Devices M5 plate reader with a delay setting of 100 ms.
Variants of TL1A were generated and tested for binding to DR3 and DcR3 by ELISA as described.

Binder | EC50 (DcR3) [nM] | Rel EC50 (DcR3) | EC50 [1] [nM] | Rel EC50 [1]
B1 | 15.8 | 3.4 ratio (head: nM) | 33.7 | 1.3 ratio (head: nM)
B2 | 8.8 | 1.9 ratio (head: nM) | 41.7 | 1.6 ratio (head: nM)
B3 | 9.8 | 2.1 ratio (head: nM) | 506 | 19.3 ratio (head: nM)
B4 | 8.9 | 1.9 ratio (head: nM) | 4620 | 176 ratio (head: nM)
B5 | 10 | 2.2 ratio (head: nM) | 23.3 | 0.9 ratio (head: nM)
B6 | 23.3 | 5.1 ratio (head: nM) | 77 | 2.9 ratio (head: nM)
B7 | 12 | 2.6 ratio (head: nM) | 113 | 4.3 ratio (head: nM)
B8 | 8.6 | 1.9 ratio (head: nM) | 26.8 | 1 ratio (head: nM)
B9 | 91 | 19.8 ratio (head: nM) | 114 | 4.4 ratio (head: nM)
B10 | 13.7 | 3 ratio (head: nM) | 56.8 | 2.2 ratio (head: nM)
B11 | 17.2 | 3.7 ratio (head: nM) | 105 | 4 ratio (head: nM)
B12 | 19.8 | 4.3 ratio (head: nM) | 1000 | 38.2 ratio (head: nM)
B13 | 8.1 | 1.8 ratio (head: nM) | 87.5 | 3.3 ratio (head: nM)
B14 | 15.4 | 3.4 ratio (head: nM) | 110 | 4.2 ratio (head: nM)
B15 | 10.6 | 2.3 ratio (head: nM) | 14.2 | 0.5 ratio (head: nM)
B16 | 16.7 | 3.6 ratio (head: nM) | 44.2 | 1.7 ratio (head: nM)
B17 | 66.1 | 14.4 ratio (head: nM) | 202 | 7.7 ratio (head: nM)
